Data as given in publication doi:10.1101/2023.11.05.565221, “Evolutionary origin and structural ligand mimicry by the inserted domain of alpha-integrin proteins” (bioRxiv, 2023).

Target: T1, wildtype αEβ7 ectodomain (human, UniProt P38570 19-1123; P26010 20-723, N-linked glycan at N303 (N321 in the legend of Figure 4))
T1 construct: signal peptide in the construct; integrin alpha-E (CD103) ectodomain, M1-H1123 (limits count on the precursor); integrin beta-7 ectodomain, M1-H723 (limits count on the precursor); Wild-type αE construct 'used for integrin:e-cadherin complex'; The αEβ7 of the BLI assay is not specified; also called integrin αEβ7; source: ExpiCHO cells, α and β co-transfected, secreted, purified (HisTrap, SEC)
Experiment: BLI; Octet Red, 25°C; Fc-tagged E-cadherin ectodomain loaded on Protein A biosensors; αEβ7 500nM to 16.125nM in activating buffer with 0.1% BSA and 0.02% Tween-20; 1:1 model, global fit of three replicates
Settings: both partners purified

T1 sequence (P38570 19-1123, chain 1 of 2): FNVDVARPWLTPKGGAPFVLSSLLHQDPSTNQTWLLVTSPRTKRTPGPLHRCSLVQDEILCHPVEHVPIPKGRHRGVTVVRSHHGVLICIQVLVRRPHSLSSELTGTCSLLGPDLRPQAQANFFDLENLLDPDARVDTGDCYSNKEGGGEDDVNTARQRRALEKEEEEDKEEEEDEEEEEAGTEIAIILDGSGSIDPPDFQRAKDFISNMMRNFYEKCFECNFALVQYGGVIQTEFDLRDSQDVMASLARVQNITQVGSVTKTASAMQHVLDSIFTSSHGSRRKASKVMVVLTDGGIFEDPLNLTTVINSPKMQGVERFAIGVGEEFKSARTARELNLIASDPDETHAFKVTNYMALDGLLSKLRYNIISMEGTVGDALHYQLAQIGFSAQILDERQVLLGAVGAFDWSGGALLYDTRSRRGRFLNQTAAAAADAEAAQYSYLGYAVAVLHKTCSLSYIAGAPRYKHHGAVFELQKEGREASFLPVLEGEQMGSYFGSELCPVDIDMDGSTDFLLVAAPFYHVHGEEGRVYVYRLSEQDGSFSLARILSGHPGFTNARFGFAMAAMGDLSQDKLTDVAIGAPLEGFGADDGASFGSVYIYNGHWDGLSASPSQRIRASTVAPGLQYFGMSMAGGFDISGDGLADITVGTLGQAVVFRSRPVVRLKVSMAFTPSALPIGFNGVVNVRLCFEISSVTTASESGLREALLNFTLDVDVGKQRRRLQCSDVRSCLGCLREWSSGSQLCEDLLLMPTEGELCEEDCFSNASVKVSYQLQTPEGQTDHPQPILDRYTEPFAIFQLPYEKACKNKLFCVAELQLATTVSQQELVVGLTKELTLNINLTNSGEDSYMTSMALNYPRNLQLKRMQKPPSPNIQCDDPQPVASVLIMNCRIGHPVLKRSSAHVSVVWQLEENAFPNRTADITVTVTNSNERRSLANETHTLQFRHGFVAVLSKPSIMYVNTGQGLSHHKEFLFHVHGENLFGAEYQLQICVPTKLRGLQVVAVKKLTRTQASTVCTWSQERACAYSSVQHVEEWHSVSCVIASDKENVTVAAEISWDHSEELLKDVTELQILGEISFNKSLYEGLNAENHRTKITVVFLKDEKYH
T1 sequence (P26010 20-723, chain 2 of 2): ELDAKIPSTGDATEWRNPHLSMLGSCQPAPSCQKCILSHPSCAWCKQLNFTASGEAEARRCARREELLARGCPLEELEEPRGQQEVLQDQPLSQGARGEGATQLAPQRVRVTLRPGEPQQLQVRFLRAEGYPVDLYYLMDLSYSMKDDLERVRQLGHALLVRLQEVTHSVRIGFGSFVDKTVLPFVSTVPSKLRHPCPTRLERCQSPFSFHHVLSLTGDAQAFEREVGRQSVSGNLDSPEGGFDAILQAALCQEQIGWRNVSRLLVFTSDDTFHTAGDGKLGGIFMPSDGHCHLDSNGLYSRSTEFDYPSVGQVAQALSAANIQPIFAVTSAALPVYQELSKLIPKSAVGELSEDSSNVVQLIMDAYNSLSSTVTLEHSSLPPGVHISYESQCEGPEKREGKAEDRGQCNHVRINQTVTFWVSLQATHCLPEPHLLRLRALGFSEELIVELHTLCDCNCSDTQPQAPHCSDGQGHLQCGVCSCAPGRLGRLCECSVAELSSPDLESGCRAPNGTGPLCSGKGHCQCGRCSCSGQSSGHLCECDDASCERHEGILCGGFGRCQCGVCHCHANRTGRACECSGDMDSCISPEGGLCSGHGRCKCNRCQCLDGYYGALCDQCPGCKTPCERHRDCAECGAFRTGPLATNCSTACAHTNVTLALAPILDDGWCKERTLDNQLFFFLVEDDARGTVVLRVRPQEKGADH

Kd: 51 ± 7.9 nM
B1: Fc-tagged E-cadherin ectodomain (Fc fusion, UniProt P12830 155-698, looked up)
chain: DWVIPPISCPENEKGPFPKNLVQIKSNKDKEGKVFYSITGQGADTPPVGVFIIERETGWLKVTEPLDRERIATYTLFSHAVSSNGNAVEDPMEILITVTDQNDNKPEFTQEVFKGSVMEGALPGTSVMEVTATDADDDVNTYNAAIAYTILSQDPELPDKNMFTINRNTGVISVVTTGLDRESFPTYTLVVQAADLQGEGLSTTATAVITVTDTNDNPPIFNPTTYKGQVPENEANVVITTLKVTDADAPNTPAWEAVYTILNDDGGQFVVTTNPVNNDGILKTAKGLDFEAKQQYILHVAVTNVVPFEVSLTTSTATVTVDVLDVNEAPIFVPPEKRVEVSEDFGVGQEITSYTAQEPDTFMEQKITYRIWRDTANWLEINPDTGAISTRAELDREDFEHVKNSTYTALIIATDNGSPVATGTGTLLLILSDVNDNAPIPEPRTIFFCERNPKPQVINIIDADLPPNTSPFTAELTHGASANWTIQYNDPTQESIILKPKMALEVGDYKINLKLMDNQNKDQVTTLEVSVCDCEGAAGVCRKA
notes: E-cadherin ectodomain, D155-A698 (limits count on the precursor); Held on Protein A biosensors by the Fc; source: ExpiCHO cells, secreted, purified (HiTrap Protein G, SEC); not shown: Fc (human), C-terminal, kept
